In US8709811B2, “Materials and methods for synthesis of a flavor and aroma volatile in plants” (University of Florida Research Foundation, Inc., priority 2003, dated 2014):
Entries after “also recorded” stand apart in the source; their conditions may differ.

Legend:
[1] = system: phenylalanine; test: Phenylalanine decarboxylase expression in E. coli: phenethylamine production in media containing phenylalanine, GC; type: cell-based; details: grown in the presence of phenylalanine, confirmed by GC-MS
Text: The full-length aromatic amino acid decarboxylase cDNAs were cloned by sequencing putative clones from the TIGR database. Following sequence analysis the full-length coding sequence was obtained by PCR, and cloned into vector pENTR/D-TOPO. The coding region was then cloned into vector pDEST15 containing a GST tag (Invitrogen) by recombination, and transformed into E. coli strain […] (Invitrogen) for inducible protein expression. Production of the recombinant protein was confirmed by protein blotting with anti-GST antibodies. Enzyme activity was determined by growing E. coli strains expressing the aromatic amino acid decarboxylases in media containing 19.4 mM phenylalanine. Volatile compounds were extracted from the cultures using an equal volume of hexanes. Extracts were concentrated and analyzed by gas chromatography on an Agilent DB-5 column on an Agilent 6890N gas chromatograph. Identification of phenethylamine was confirmed by GC-mass spectrometry as described by Schmelz et al. (2001).
The coding regions of the full-length aromatic amino acid decarboxylases were cloned in vector pDEST15 with a GST tag and transformed into E. coli BL21-SI cells for inducible expression. The production of recombinant proteins in E. coli was confirmed by Western blotting with an anti-GST antibody. […] Volatile compounds were extracted from these cultures and analyzed by gas chromatography. […]

[2] = In vitro phenylethanol dehydrogenase activity of E. coli expressed petunia homolog; type: biochemical; details: E. coli expressed protein
Text: FIGS. 14A-14B show the nucleotide (SEQ ID NO: 10) and amino acid sequence (SEQ ID NO: 11) of a petunia homolog of the tomato phenylethanol dehydrogenase.

| Molecule | Production of phenethylamine by E. coli cultures expressing the decarboxylase [1] | Phenylethanol dehydrogenase activity in vitro [2] |
| --- | --- | --- |
| cLEC73K23: tomato phenylalanine decarboxylase cLEC73K23, SEQ ID NO: 7, encoded by SEQ ID NO: 6 (protein, listed as Lycopersicon esculentum) MGSLSLEMDFEPSPMTPRSLAAMTPRSLARRRLFPNVDNKKQKMAQPGAGPRKNLELEVMEPALKNDGPSLDTILVNYLDTLTQRVNYHLGYPVNICYDHYATLAPLLQFHLNNCGDPFLQNTVDFHSKDFEVAVLNWFAKLWEIEKDQYWGYVTNGGTEGNLHGILLGRELLPEGILYASKDSHYSVFKAARMYRMDSETINTSVNGEMDYSDLRAKLLQNKDKPAIINVTIGTTFKGAIDDLDVILEILKECGYSQDRFYIHCDAALCGLMTPFINNMISFKKPIGSVTISGHKFLGCPMPCGVQITRKSYINNLSTNVEYIASVDATISGSRNGLTPIFLWYSLSAKGQVGLQKDVKRCLDNAKYLKDRLQQAGISVMLNELSIIVVLERPRDHEFVRRWQLSCVKDMAHVIVMPGITREMLDNFMSELVQQRKVWYQNGKTDPPCVGEDIGAQNCACSYHKIDYICP | produced a compound with the same retention time as phenethylamine; also recorded: produce phenethylamine | – |
| petunia homolog of the tomato phenylethanol dehydrogenase: petunia 2-phenylethanol dehydrogenase, SEQ ID NO: 11, encoded by SEQ ID NO: 10 (protein, listed as Lycopersicon esculentum) MSSVAATKTVCVTGASGYIASWLVNFLLQRGYTVKASVRDPNDPKKTQHLISLGGAKERLHLFKANLLEEGSFDAVVDGCEGVFHTASPFYYSVTDPQAELLDPAVKGTLNLLGSCAKAPSVKRVVLTSSIAAVAYSGEPRTPEVVVDESWWTSPDYCREKQLWYVLSKTLAEDAAWKFVKEKGIDMVAINPAMVIGPLLQPTLNTSSAAVLNLVNGAETYPNATFGWVNVKDVANAHILAFENPSANGRYLMVERVAHYSDILKILRELYPTMRLPEKCADDNPLMQNYQVSKERAKSLGVEFTPLEESIKETVESLKEKKFFGGSSAM | – | exhibits phenylethanol dehydrogenase activity |
| cLEC75E21: tomato phenylalanine decarboxylase cLEC75E21, SEQ ID NO: 5, encoded by SEQ ID NO: 4 (protein, listed as Lycopersicon esculentum) MGSLSFEKDFEPSAITPRGLAPPGLIVNGDFGEMMRLKVSSTPTTPRKNLNLSVTEPGKNDGPSLDCTLMNYIDTLTQRINYHIGYPVNICYEHYANLAPLLQFHLNNCGDPFLQNTVDFHSKDFEVAVLNWFADLWEIERDQYWGYVTNGGTEGNLHGILVGRELFPDGILYASKDSHYSVAKAAMMYRMDFENINASINGEIDYSDLKVKLLQNKGKPAIINVTIGTTFKGAVDDLDVILQILEECGYTRDQFYIHCDAALNGLIIPFIKNMITFKKPIGSVTISGHKFLGCPMPCGVQITRKSYINNLSRRVEYIASVDATISGSRNGLTPIFLWYSISAKGQIGFQKDVKRCFDNAKYLKDRLQQAGISVMLNELSIIVVLERPRDHEFVRRWQLSCVRDMAHVIVMPGITRETLDGFINDLLQQRKKWYQDGRISPPCVANDIGAQNCACSYHKIDYIIA | produced a compound with the same retention time as phenethylamine; also recorded: produce phenethylamine | – |
